Bridge positions count the residues as written; N and C are the ends. Ends that are not written are not given here.
Legend:
Assay in all cases: enzyme inhibition (steady state, chromogenic substrate S-2444); about 2 nM enzyme (purified or conditioned medium of transfected cells) pre-incubated 15 min with varied peptide in HBS (10 mM HEPES pH 7.4, 140 mM NaCl) with 0.1% BSA at 37°C; substrate about KM; fit for competitive inhibition; highest peptide concentration 400 µM
muPA-K143A (murine) = target: muPA-K143A (murine)
muPA-K41A (murine) = target: muPA-K41A (murine)
muPA-Y99A (murine) = target: muPA-Y99A (murine)
muPA-S190A (murine) = target: muPA-S190A (murine)
muPA-V213T (murine) = target: muPA-V213T (murine)

B1: mupain-1 (peptide)
peptide: CPAYSRYLDC
modifications: disulfide 1-10 (inferred)
B1 gave a Ki (muPA-K143A (murine)) of 4.88 µM, a Ki (muPA-K41A (murine)) of 4.29 µM and a Ki (muPA-Y99A (murine)) of 26 µM. The Ki (muPA-S190A (murine)) was 1.6 µM and the Ki (muPA-V213T (murine)) was 0.246 µM.

B2: Mupain-1 D9A (peptide)
peptide: CPAYSRYLAC
modifications: disulfide 1-10 (inferred)
In the case of B2, the Ki (muPA-K143A (murine)) is reported as 4.34 µM, the Ki (muPA-K41A (murine)) is reported as 0.27 µM and the Ki (muPA-Y99A (murine)) is reported as 27.2 µM. For the same binder, the Ki (muPA-S190A (murine)) was 3.02 µM and the Ki (muPA-V213T (murine)) was 0.373 µM.

Source: publication PMC4278837, “A Cyclic Peptidic Serine Protease Inhibitor: Increasing Affinity by Increasing Peptide Flexibility” (PLoS ONE, 2014)
